Source: article PMC4798592
pKd: −log10 of the molar value.

What was measured:
Conditions in all cases: EMSA: 20 mM phosphate pH 8.0, 100 mM NaCl, 5% glycerol, with or without TX-100, 0.1 nM 32P-DNA, 20 min on ice, 6% native PAGE
[1] = system: C9W (rSarA C9W) (Staphylococcus aureus); experiment: EMSA
[2] = system: rSarA (Staphylococcus aureus); experiment: EMSA
[3] = system: rSarA (Staphylococcus aureus); experiment: EMSA; remark: listed apart in the source
[4] = system: rSarA (Staphylococcus aureus); experiment: EMSA; remark: listed apart in the source
[5] = system: rSarA (Staphylococcus aureus); experiment: EMSA; remark: listed apart in the source
[6] = system: C9W (rSarA C9W) (Staphylococcus aureus); experiment: EMSA; remark: listed apart in the source
[7] = system: C9W (rSarA C9W) (Staphylococcus aureus); experiment: EMSA; remark: listed apart in the source
[8] = system: C9W (rSarA C9W) (Staphylococcus aureus); experiment: EMSA; remark: listed apart in the source
[9] = target: T1, rSarA (Staphylococcus aureus) (UniProt A6QES8); experiment: DNase I footprinting
T1 sequence: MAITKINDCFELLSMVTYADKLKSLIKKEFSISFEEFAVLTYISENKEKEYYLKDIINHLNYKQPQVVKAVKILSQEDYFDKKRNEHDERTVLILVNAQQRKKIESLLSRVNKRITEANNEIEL

Substance	pKd [1]	pKd [2]	pKd [3]	pKd [4]	pKd [5]	pKd [6]	pKd [7]	pKd [8]	binding [9]
hla promoter DNA	6.40	6.44	7.46	7.30	7.70	7.01	7.24	7.22	
CTATTAGATATTTCTATGTAATGGCAAAATTTATTCCCGACGAAATTCCAAACATAATTAATACCCTTTTTCTCTATTTCTATTTATTAATTTACACTAGTTAATATATAGTTAATTTTTATTTAATAGTTAATTAATTGATTTAATTCTAAGATATTTGTATTTTTATATTGTAATCGATTACATTTTTAAATCAAACAAATCATTAGTTTTAAAGAAATTAATCAATAAAATTAGCTATGT (double strand) [hla promoter DNA, bottom strand labelled (footprinting)]									binds
